Experimental data from paper PMC6882556, “Cryo-EM structure of the KvAP channel reveals a non-domain-swapped voltage sensor topology” (eLife, 2019).

Molecular target: the molecule itself
Test: cryo-EM structure; KvAP(12-282) tetramer purified as a complex with 6E1 Fab; 20 mM Tris-HCl pH 8.0, 150 mM KCl, 0.06% digitonin; C4 symmetry applied; final map ~5.9 Å

B1: KvAP, voltage-gated K+ channel from Aeropyrum pernix (residues 12-282) (natural protein, UniProt Q9YDF8 25-295, looked up)
chain: GGRVRNIGDVMEHPLVELGVSYAALLSVIVVVVEYTMQLSGEYLVRLYLVDLILVIILWADYAYRAYKSGDPAGYVKKTLYEIPALVPAGLLALIEGHLAGLGLFRLVRLLRFLRILLIISRGSKFLSAIADAADKIRFYHLFGAVMLTVLYGAFAIYIVEYPDPNSSIKSVFDALWWAVVTATTVGYGDVVPATPIGKVIGIAVMLTGISALTLLIGTVSNMFQKILVGEPEPSCSPAKLAEMVSSMSEEEFEEFVRTLKNLRRLENSMK
notes: KvAP, voltage-gated potassium channel of Aeropyrum pernix, residues 12-282; In the cryo-EM sample the tetramer carried 6E1 Fab fragments on its voltage sensors; also called KvAP tetramer
- stoichiometry N: 4
